The results in this text go back to the nanobody polyreactivity screen of Harvey et al. (2022).

A short description of this data set: yeast display, Sf9 membrane polyspecificity reagent, FACS + sequencing; frameworks hold sequencing errors. The gist of the method: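 Galactose induction of a Saccharomyces cerevisiae BJ5465 synthetic nanobody display library ran 36–48 hours. The cells were then stained for 1 hour at 4 °C with 10% biotinylated, detergent-solubilized Sf9 membrane reagent, pulled down on streptavidin microbeads and FACS-sorted into low and high (top ~1%) gates on expression and reagent-binding fluorescence. Labels for polyreactivity follow the gate of origin.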
For the sequence “QVQLVDSGGGLVQAGGSLRLSCADSGRTFYTNAMGWYRQAPGKERELVAAIDISGSTYYADSVKGRFTISRDNAKNTVYLQMNSLKPEDTAVYYCNVDTVCLGGEKGGYYWGQGSQVTVSS”, the “polyreactivity (PSR sort gate)” value is listed as “low polyreactivity”.
As for “QVQLVDSGGGLVQAGGSLRLSCAPSGYIFPYNAMGWYRQAPGKEREFVAAITSSGGSTYYADSVKGRFTISRENAKNTVYLQMNSLKPEDTAVYYCARVPLHRYGYWGQGTQVNVSS”, the “polyreactivity (PSR sort gate)” value is listed as “high polyreactivity”.
As to “QVQLVDSGGGLVQAGGSLRLSCDASGITFYDYAMGLYRQAPGKEMEFVASITSSGGYTYYADSVKGRFTISRDNAKNTVYLQMNILKPEDTSVYYCNVRYKRNRWQYDYWGQGTQVTVSS”, the “polyreactivity (PSR sort gate)” value is “high polyreactivity”.
Under “QVQLVDSGGGLVQAGGSLRLSCDASGSIFFWYTMGWYRQAPGKESELVATITGSGSSTTYADSVKGRFTISRDNAKNTVYLQMISLKPEDTAVYYCAAADIIDHSFPYDYWGLGTQVTVSS” stands “low polyreactivity”.
Consider “QVQLVDSGGGLVQAGGSLRLSSAASGFTLLYNAMGSYRQAPGKERELVSTITGGGTTYADSVKGRFTISRDNAKNTVYLQMNSLKPEDTAVYYCATSRVWRLYRYLPQYRGYYYWGQGTQVTVSS”, for which the “polyreactivity (PSR sort gate)” value is reported as “high polyreactivity”.
Under “QVQLVDSGGGLVQAGGSLRLSSAASGSTFRYYAMGWYRQAPGKERELVAAISRSGGRTYYADSVKWRFTISRDKAKNTVYLQINSLKPEDNAVYYCNKDSRASPYGYWGQGTQVTVSS” stands “high polyreactivity”.
Regarding “QVQLVDSGGGLVQAGGSLRLTCAASGIIIPVYAMGWYRQAPGKERELVAAISSGGSTYYADSVKGRFTISRDNAKNTVYLQINSLKPEDTAVYYCAARKVRYPYRWYDYWGQGTQVTVSS”, the “polyreactivity (PSR sort gate)” value was “high polyreactivity”.
“QVQLVDSGGGLVQAGGSLRLTCAASGRIFCDNAMGWYRQEPGKERELVAAISDSVVITYYADSVKGRFTISRDNAKNTVYLQMNSLKPEDTAVYYCAADKRGTVYLSSFWMDYWGQGTQVTVSS”: the “polyreactivity (PSR sort gate)” value is recorded as “low polyreactivity”.
The entry for “QVQLVDSGGGLVQAGGSLRLTCAASGRTFYGNAMGWYRQAPGKERELVATINYSGGSTYYADSVKGRFTISRDNAKNTVYLQMNSLKPEDTAVYYCAADDPEEFDYWGQGTQVTVSS” is “low polyreactivity”; for “QVQLVDSGGGLVQAGGSLRLTCAASGSIFNYYTMGWSRQAPGKERELVAAISSSGGSTYYADSVKGRFTISRDNAKNTVYLQMNSLKPVDTAVYFCNTYPPAHREYESWGQGTQLTVSS” it is “high polyreactivity”; for “QVQLVDSGGGLVQAGGSLRLTCAASGSIFPRNVMGWYRHAPGKERELVAAISSRATRTYYADSVKGRFTISRDNAKNTVYLQMNSLKPEDTAVYYCAADRTLYSSGYYYWGQGSQVTVSS” it is “high polyreactivity”.
The entry for “QVQLVDSGGGLVQAGGSLRLTCDASGSTFYVNFMGWYRQAPGKERELDALIDWRGGSTYYADSVKGRFTISRDNAKNTVYLQMNSLKPEDTAVYYCKKDAQFYYKLPYYKERDWGQGTQVTVSS” is “low polyreactivity”.
“QVQLVDSGGGLVQAGGSLRLTFAASGRTFRWNVMGWYRQAPGKERELVATISRRSGSTNYADSVKGRFTISRDNAKITVYLQMNSLKPEDTAVYYCAVVIVRALVYAGDYWGQGTQVTVSS”: the “polyreactivity (PSR sort gate)” value is “low polyreactivity”.
With “QVQLVDSGGGLVQAGGSLRVSCAASGRIFSGHAMGWYRQAPGKVRELVAAITSGGDDTYYADSVKGRFTISRDNAKNTVYLQMNSLKPEDTAVYYCAARYLGYTYYYWGQGTQVSVSS”, the “polyreactivity (PSR sort gate)” value is on record as “low polyreactivity”.
The entry for “QVQLVDSGGGLVQAGGSLSLSCAASGRIFTHYSMGWYRQATGKERELVAGMSQGGGSTYYADSVKGRFTISRDNAKNTVYLQMNSLKPEDTAVYYCAKTYDYVDYDYWGQGTQVTVSS” is “low polyreactivity”; for “QVQLVDSGGGLVQAGGSLSLSCAASGSTFKHYAMGWYRQAPGKERELVAAISSRGGSTHYADSVKGRFTISRDNAKNTVYLQMNSLKPEDTAVYYCARDTDTLSSRSSDYDYWGQGTQVTVSS” it is “low polyreactivity”; for “QVQLVDSGGGLVQAGVSLRLSCAASGSTFVFYAMGWYRQAPGKERELVAGISWSGGSTYYADSVKGRFTISRDNAKNTVYLQMNSLKPEDTAVYYCAARYTRYLGSGYYYCGQGTQVTVSS” it is “high polyreactivity”.
Under “QVQLVDSGGGLVQEGGSLRLSCAASGSIFSTYARGWYRQAPGKEWEVVAAITRGGRTTYADSVKGRFTISRDNAKNTVYLQMNSLKPEDTAVYYCNAVGVYYWWYRLYDYWGQGTQVTLSS” stands “high polyreactivity”; under “QVQLVDSGGGVVQAGGSLLLSCPASGLIIKVYAMGWYRQAPGKERELVAAITYSGGSTDYADSVKGRFTISRDNAKNTVFLQMISLKPEDTAVYYCNVEKVGHVNSYGYDYWGQGTQVTVSS”, “low polyreactivity”; under “QVQLVDSGGGVVQAGGSLRLSCAASGFIFSGYAMGWYRPAPGKERELVAVISRGGGSTSYADSVKGRFTISRDNAKNTVYLQMNSLKPEDTAVYYCAAVYYPLSVDNDYWGQGTQVTVSS”, “high polyreactivity”.
The entry for “QVQLVDSGGRLEQAGGSLRLSCAASGSIFGWNAMGWYRQAPGKERELVAAINWTGGTTYYADSVKGRITISRDNAKYTVYLQMKSLKPADTAVYYCAARLTYHVAGQITRYYYWGQGTQVTVSS” is “low polyreactivity”; for “QVQLVDSGRGLVQAGGSLRLSCAASGGTFARNAMGWYRQAPGKERELVAAIRGGVSTNYADSVKGRFTISSDNAKNTVYLQMNSLKPEDTAVYYCNASPPTLEGYWGQGTQVTVSS” it is “low polyreactivity”; for “QVQLVDSGRGLVQAGGSLRLSCASSGSTFRDYAMGWYRQAPGKETELVAVITWNGGSTYYADSVKGRFTISRDNAKNTVYLEMNSLKPEDTAVYYCGAVYPRSLSTEYYYWGQGTQVTVSS” it is “high polyreactivity”.
As for “QVQLVDSRGGLVQAGGSLRLSCAASGRTLYSNAKGLSRQAPGKERDLVAAISGSGDTTYYADSVKGRFTISRDNAKNTVYLTMKSLKPEDTAVYYCAADHDSYGAGYEYCGQGTQVTVSS”, the “polyreactivity (PSR sort gate)” value was “low polyreactivity”.
For “QVQLVDSVGGLVQAGASLRLSCAASGSIFYYYAMGWYREAPGKERELVAAIRYRGGRTYYADSVKGRFTISRDNAKNTVYLQMNSLKPEDTAVYYCNADVIRRGGSRYSSGRDFDYWGQGTQVTVSS”, the “polyreactivity (PSR sort gate)” value is “high polyreactivity”.
Turning to “QVQLVDSVGGLVQAGGSLRLSCAASGLTFLGNAMGWYRQATGKEREFVAGIDRSSVSTYADSVKGRFTISRDNAKNTVYLQMNSLKPEDTEVYYCAVVEYGIWVGWVPYATFGMNYWGQGTQVTVSS”, the “polyreactivity (PSR sort gate)” value is “high polyreactivity”.
Under “QVQLVDSVRGLVQAGGSLRLSCAASGSIFNQNAMGWYRQAPGKERELVAVISSGGRTSYADSVKGRFTISRDNAKNTVYLQMNSLKPEDTAVYYCAADYGDRYWDYGYWGQGTQVTVSS” stands “low polyreactivity”.
Take “QVQLVDTGRGLVQAGGSLRLSCAPSGRTFGYNAMGWYRQAPGKERELVAAINWSGASTYYADSVKWRFTISRDNAKNTVYLQMKSLKPEDTAVYYCAADYSYIYGFDYWGQGTQVTVST”: the “polyreactivity (PSR sort gate)” value is given as “low polyreactivity”.
Consider “QVQLVEAGGGLVHAGGSLRLSCAASGRIFLAYAMGCYRQAPGKEMELVATIRSGGSTTYADSVKGRFTISRDNAKNSVYLQMNSLKTEDTAVYYCARRYQRKKPVFPHSQGAYDYWGQGTQVTVSS”, for which the “polyreactivity (PSR sort gate)” value is on record as “low polyreactivity”.
The entry for “QVQLVEAGGGLVQAGGSLRLSCAASGFTISSNAMGWYRQAPGKERELVAAISFNSTSTYYADSVKGRFTISRDNAKNSVYLQMNSLKPEDTAVYYCSADVPRVQSEPEYDYWGQGTQVTVSS” is “low polyreactivity”.
